Test results reported in patent US20260250420A1 (SICHUAN KELUN BIOTECH BIOPHARMACEUTICAL, published 2026).
Values belong to the binder of their own block, whether it stands above or below them.

How the values were obtained:
[1] = molecular target: T1, human PTK7 protein (extracellular sequence of human PTK7 with C-terminal 6×His tag) (human, UniProt Q13308 31-704); assay: ELISA, coated human PTK7 protein 1 µg/ml
T1 construct: extracellular domain; Expressed transiently in HEK293 cells; also called human PTK7-His; human PTK7-His protein
T1 sequence: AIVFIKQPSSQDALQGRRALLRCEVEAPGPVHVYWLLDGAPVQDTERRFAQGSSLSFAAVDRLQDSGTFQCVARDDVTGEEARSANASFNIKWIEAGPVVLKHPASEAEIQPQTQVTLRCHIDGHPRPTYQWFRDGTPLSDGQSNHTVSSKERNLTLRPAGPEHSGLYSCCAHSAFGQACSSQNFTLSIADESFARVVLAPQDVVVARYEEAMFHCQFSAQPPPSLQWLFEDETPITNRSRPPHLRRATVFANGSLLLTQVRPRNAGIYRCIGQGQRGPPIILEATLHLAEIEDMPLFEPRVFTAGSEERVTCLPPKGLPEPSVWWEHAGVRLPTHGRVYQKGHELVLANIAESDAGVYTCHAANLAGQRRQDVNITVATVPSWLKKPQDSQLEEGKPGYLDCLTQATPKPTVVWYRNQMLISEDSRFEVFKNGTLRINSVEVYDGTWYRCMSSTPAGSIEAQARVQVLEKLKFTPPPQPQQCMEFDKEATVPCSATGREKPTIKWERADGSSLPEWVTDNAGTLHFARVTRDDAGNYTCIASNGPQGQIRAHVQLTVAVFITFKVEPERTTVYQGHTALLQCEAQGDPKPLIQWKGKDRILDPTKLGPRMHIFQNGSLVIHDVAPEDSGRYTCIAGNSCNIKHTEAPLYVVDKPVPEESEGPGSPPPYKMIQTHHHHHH
Procedure: Original data was imported into software for nonlinear curve fitting, and EC₅₀ of binding of each antibody to human PTK7 and monkey PTK7 was calculated, respectively. As shown in Table 1 and FIGS. 1A-1B, the screened antibodies could be bound to the human and monkey PTK7 proteins with affinity higher than that of the control antibody Hu24.

[2] = molecular target: T2, human PTK7 on cells (tumor cells endogenously expressing PTK7); CHO-hPTK7, CHO-S-hPTK7 and 293T-hPTK7 … (human, UniProt Q13308 31-1070); assay: flow cytometry on H1299 cells endogenously expressing PTK7
T2 construct: whole, on cells; The cell line of each value is named under assay; also called H1299; H358
T2 sequence (looked up): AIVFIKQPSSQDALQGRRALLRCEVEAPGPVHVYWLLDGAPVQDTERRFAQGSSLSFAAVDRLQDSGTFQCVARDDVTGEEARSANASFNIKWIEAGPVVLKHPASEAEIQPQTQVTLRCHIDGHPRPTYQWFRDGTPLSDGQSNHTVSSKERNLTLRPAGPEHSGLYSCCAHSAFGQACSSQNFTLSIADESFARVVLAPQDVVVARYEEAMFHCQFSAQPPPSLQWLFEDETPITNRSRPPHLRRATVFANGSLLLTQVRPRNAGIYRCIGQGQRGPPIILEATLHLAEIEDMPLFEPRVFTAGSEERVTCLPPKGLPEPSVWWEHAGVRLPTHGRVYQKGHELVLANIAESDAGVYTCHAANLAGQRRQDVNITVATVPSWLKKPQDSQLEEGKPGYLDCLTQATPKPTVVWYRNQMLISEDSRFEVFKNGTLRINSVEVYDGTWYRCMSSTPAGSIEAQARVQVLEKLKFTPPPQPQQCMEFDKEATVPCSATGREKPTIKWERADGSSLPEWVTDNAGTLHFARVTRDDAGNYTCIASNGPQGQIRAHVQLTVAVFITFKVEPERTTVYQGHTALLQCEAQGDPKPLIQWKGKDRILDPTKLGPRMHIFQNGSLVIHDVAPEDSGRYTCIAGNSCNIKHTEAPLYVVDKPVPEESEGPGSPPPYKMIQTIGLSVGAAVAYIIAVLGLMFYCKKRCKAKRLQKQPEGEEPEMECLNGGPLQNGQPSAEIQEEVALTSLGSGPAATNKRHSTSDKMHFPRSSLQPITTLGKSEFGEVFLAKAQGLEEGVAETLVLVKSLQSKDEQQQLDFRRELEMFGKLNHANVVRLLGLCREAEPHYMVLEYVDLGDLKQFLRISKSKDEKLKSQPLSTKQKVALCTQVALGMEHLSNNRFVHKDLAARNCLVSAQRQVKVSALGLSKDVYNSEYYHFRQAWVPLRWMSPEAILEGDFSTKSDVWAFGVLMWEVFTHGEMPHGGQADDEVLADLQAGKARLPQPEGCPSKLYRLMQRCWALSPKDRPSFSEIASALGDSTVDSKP

[3] = molecular target: T2, human PTK7 on cells (tumor cells …); assay: competition flow cytometry on 293T-hPTK7 cells, streptavidin-PE; competitor: biotin-labelled Hu24
[4] = molecular target: T3, human Fc receptor protein FcRn (human, UniProt P55899 24-297; P61769 21-119, biotinylated); assay: BLI (ForteBio), biotinylated receptor on SA sensor, antibody from 5,000 nM, 1:1 global fit
T3 construct: Biotinylated protein captured on SA sensors
Source text: The dynamic affinity of the antibodies 101A6HZ, 101A6HZm and Hu24 with human Fc receptor proteins CD16a, CD32a, CD32b, CD64 and FcRn was detected through ForteBio (Pall life sciences).

[5] = molecular target: T2, human PTK7 on cells (tumor cells …); assay: competition flow cytometry on 293T-hPTK7 cells, streptavidin-PE; competitor: biotin-labelled 101A6HZ
[6] = molecular target: T1, human PTK7 protein (extracellular …); assay: competition ELISA on coated human PTK7 protein; competitor: biotin-labelled 64A10HZ at a fixed concentration
Procedure: The human PTK7 protein was diluted to reach 1 μg/ml by using the CBS coating liquid, coated by a 96-well microtiter plate at a density of 100 μl/well, and stood overnight at 4° C.; and after the plate was washed and blocked, the biotin-labeled antibody and the to-be-detected antibody were added, and incubated for 2 h at room temperature. After the plate was washed, the secondary antibody was added for incubation, and finally was subjected to color development, then the reaction was terminated, and the absorbance at OD₄₅₀ nm was read by the microplate reader. The original data was imported into software for nonlinear curve fitting (four parameters).

EC50 [1]: 0.0457 µg/mL
EC50 [2]: 0.293 µg/mL
IC50 (read off the curve) [3]: ~0.3 µg/mL
B1: Hu24 (PTK7 control antibody, taken from Hu24 in the Patent CN201580030255) (antibody)
chain 1: QVQLVQSGPEVKKPGASVKVSCKASGYTFTDYAVHWVRQAPGKRLEWIGVISTYNDYTYNNQDFKGRVTMTRDTSASTAYMELSRLRSEDTAVYYCARGNSYFYALDYWGQGTSVTVSS
chain 2: EIVLTQSPATLSLSPGERATLSCRASESVDSYGKSFMHWYQQKPGQAPRLLIYRASNLESGIPARFSGSGSGTDFTLTISSLEPEDFAVYYCQQSNEDPWTFGGGTKLEIK

Kd [4]: 11.8 nM
IC50 (read off the curve) [5]: ~1 µg/mL
B2: 101A6HZ (anti-human PTK7 humanized antibody) (antibody, human IgG1, kappa)
heavy: not shown
light: DIVMTQSPDSLAVSLGERATINCKASQDVGSAVIWYQQKPGQSPKLLIYWASTRHTGVPDRFSGSGSGTDFTLTISSLQAEDVAVYYCQQYSSYPLTFGQGTKLEIKRTVAAPSVFIFPPSDEQLKSGTASVVCLLNNFYPREAKVQWKVDNALQSGNSQESVTEQDSKDSTYSLSSTLTLSKADYEKHKVYACEVTHQGLSSPVTKSFNRGEC

IC50 (read off the curve) [6]: ~0.2 µg/mL
B3: 64A10HZ (anti-human PTK7 humanized antibody) (antibody, human IgG1, kappa, V domains shown)
VH: QVQLQESGPGLVKPSETLSLTCTVSGFSLTSYGVYWVRQPPGKGPEWLGVIWTSGNTNYNPSLKSRLTISKDNSKNQVSLKLSSVTAADTAVYYCVKHDGGNYVGVMNYWGQGTLVTVSS
VL: EIVMTQSPDFQSVTPKEKVTITCRASQSISDYLHWYQQKPDQSPKLLIKYASQSISGVPSRFSGSGSGSDFTLTINSLEAEDAATYYCQNGHSFPPTFGQGTKLEIKR
notes: Human IgG1 heavy chain constant region and human Kappa light chain constant region; expressed in CHO-S cells
